Laboratory results as given in patent publication US20100093090A1, “METHOD AND KIT FOR EFFICIENT REPROGRAMMING OF SOMATIC CELLS” (priority 2008, published 2010).

Legend:
[1] = system: human adult foreskin fibroblast (hAFF) cells; assay: Human iPS cell generation from fibroblasts by lentiviral transduction of reprogramming factors (colony counting, AP staining, GFP silencing); assay type: cell-based
Method: 5×10^4 cells were plated onto a 10-cm dish. Shown are numbers of total colonies and AP-highly positive colonies (in parenthesis) counted on day 18 post-transduction. “4” indicates the reported four reprogramming factors OCT4 (O), SOX2 (S), KLF4 (K) and c-MYC (M). […] (C-E): Total colony numbers (left panels), highly AP-positive colony numbers (middle panels) and iPS colony numbers (right panels). The colony number shown are those induced from 10^5 cells plated on the feeder cells by different combinations of factors. The results of three independent experiments are shown with different colors. […] Numbers were counted on day 25 post-transduction; (D) The six factors (4PU) combination minus the reported four reprogramming factors, respectively. (Da and Db) Numbers were counted on day 25 post-transduction. (Dc) Numbers were counted on day 35 post-transduction. […] Numbers were counted on day 35 post-transduction.
Lentiviral vector containing OCT4, SOX2, c-MYC, KLF4, UTF1, p53 siRNA and control p53 siRNA respectively (15 μg) together with pMDLg/pRRE, RSV/Rev and VSV-G (FIG. 13 A, B, C) (5 μg for each), were respectively transfected into 293T cells with the Ca3(PO4)2-method in 10-cm dishes and incubated overnight. 12 hours later, the medium was changed and virus was collected after subsequent 36 hours cultivation. Viral supernatant was collected and filtered through 0.45 μm filters (Millipore) and then placed onto target fibroblasts supplemented with 10 ng/μl polybrene (Sigma-Aldrich). Typically, 1×10^5 fibroblasts in a well of 6-well plate were infected with 250 μl viral supernatant of each gene. The viral supernatant was changed with fibroblast culture medium after 12 hours. […] 5-6 days later, the infected cells were collected, counted, and plated onto MEF feeders (typically 2×10^4 to 1×10^5 cells for a 10-cm dish). […] The efficiency to generate iPS cells was calculated according to Takahashi's method, by which the number of cell colonies was counted and divided by the number of cells plated onto feeders (Takahashi et. al., 2007) (FIGS. 1C, 1D, 1E, 5C, and 5D). […]

p53 = assay: Knockdown of p53 expression by p53 shRNA in hAFF; assay type: cell-based, human; conditions: nonsense siRNA as control
[2] = system: iPS cell generation efficiency; assay: iPS cell generation in presence of HDAC inhibitors (VPA, SBHA, Butyrate); assay type: cell-based
Method: FIG. 10. The colony number shown are those induced from 10^4 cells plated on the feeder cells by different combinations of factors. IPS colony numbers were counted on day 25 post-transduction. (O: OCT4; S:SOX2; K: KLF4; G: GFP; P: P53siRNA; U: UTF1). (A) In presence of VPA, iPS cell generation efficiency could be enhanced by UTF1 or P53 siRNA, or their combination. […] VS: VPA+SBHA; VB: VPA+Butyrate. The working concentrations of VPA, SBHA and Butyrate in this study were 0.5 mM, 2 μM, 0.1 mM, respectively.
Recently, it is reported that iPS cells could be generated when contacting with HDAC inhibitors (and/or other compounds) by a much higher efficiency. We further tested whether UTF1 and p53 siRNA would still work in the context of HDAC inhibitors.

[3] = with the four factors, day 25 post-transduction

B1: p53 siRNA: lentiviral pLL3.7-encoded shRNA against p53; DNA sequence encoding it GACTCCAGTGGTAATCTACT (SEQ ID NO: 6 and 7) (nucleic acid)
DNA 1: TGACTCCAGTGGTAATCTACTTCAAGAGAGTAGATTACCACTGGAGTCTTTTTTC
DNA 2: TCGAGAAAAAAGACTCCAGTGGTAATCTACTCTCTTGAAGTAGATTACCACTGGAGTCA
iPS cells obtained out of every 100,000 human adult fibroblast cells after infection ([1]; together with Oct4, Sox2 and Klf4, without c-Myc, about 1 month post-infection, on average): about 30
highly AP-positive colony numbers and iPS colony numbers [1, 3]: did not further exert its effect
total numbers of cell colonies [1, 3]: dramatically enhanced
knockdown of p53 expression (p53): efficient
reprogramming efficiency when VPA was added ([2]; VPA 0.5 mM, 10^4 cells plated, day 25 post-transduction): enhance the reprogramming efficiency significantly
reprogramming efficiency in presence of two HDAC inhibitor combination ([2]; VPA+SBHA or VPA+Butyrate, 0.5 mM, 2 μM, 0.1 mM, day 25): enhances reprogramming efficiency
